Target: CD40 in the antibody expressing cells (rabbit plasmablasts from peripheral blood) (rabbit)
Test: cell-based or functional assay

| Substance | B cell growth after 7 days, batch sort in BM1, Fc-CD40-L against LZ-CD40-L (18 kDa) (% higher than LZ-CD40-L (18 kDa)) | B cell growth after 7 days, batch sort in BM1, cytokines + CD40-L construct 7.5 ug/ml, against the reference EL4-B5 + TSN (% more than reference) | cell growth after 7 days, batch sort in BM1, cytokines + Fc-CD40-L 7.5 ug/ml (#4) against the reference TSN + EL4-B5 (% higher than reference) | cell growth after 7 days, batch sort in BM2, 2.5 ug/ml Fc-CD40-L (#12) against 7.5 ug/ml (#10) | cell growth after 7 days, batch sort in BM2, 5.0 ug/ml Fc-CD40-L (#11) against 7.5 ug/ml (#10) | cell growth after 7 days, batch sort in BM2, cytokines + 2.5 ug/ml Fc-CD40-L (#12) against the reference #9 (% lower than reference) | cell growth after 7 days, batch sort in BM2, cytokines + 5.0 ug/ml Fc-CD40-L (#11) against the reference #9 (% lower than reference) | cell growth after 7 days, batch sort in BM2, cytokines + 7.5 ug/ml Fc-CD40-L (#10) against the reference TSN + EL4-B5 (#9) (% higher than reference) | B cell growth after 7 days, batch sort in BM1, cytokines + CD40-L construct 7.5 ug/ml, against the reference EL4-B5 + TSN (% of reference) | DoE parameter estimate for plasmablast proliferation (cell number after 7 days, 50 cells per well, feeder cell and TSN replacement) |
| --- | --- | --- | --- | --- | --- | --- | --- | --- | --- | --- |
| Fc-CD40-L (human IgG1-Fc fragment linked to the 18 kDa rabbit CD40-L fragment) (Fc fusion) | 32 | 43 | 23 | 1.4 times lower | 1.1 times lower | 27 | 5 | 6 |  |  |
| LZ-CD40-L EctoD (ligand) |  |  |  |  |  |  |  |  | 68 | 139 |

From patent US20260201327A1
